This is an account of results in article PMC7739888, “Induction of the cydAB Operon Encoding the bd Quinol Oxidase Under Respiration-Inhibitory Conditions by the Major cAMP Receptor Protein MSMEG_6189 in Mycobacterium smegmatis”.

The data set concerns the target T1, Crp1 (MSMEG_6189), C-terminal His6 (UniProt A0R5H1 1-224).
T1 sequence: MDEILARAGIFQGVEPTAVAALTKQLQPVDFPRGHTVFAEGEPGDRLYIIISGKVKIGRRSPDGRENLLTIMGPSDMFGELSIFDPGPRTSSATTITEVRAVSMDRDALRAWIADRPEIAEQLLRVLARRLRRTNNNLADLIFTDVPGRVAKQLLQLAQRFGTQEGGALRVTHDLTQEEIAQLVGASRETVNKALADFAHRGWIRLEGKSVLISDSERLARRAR
As to the kind of experiment: EMSA; 200 uM cAMP; binding virtually abolished; EMSA: 20 mM Tris-HCl pH 8.0, 100 mM NaCl, 2.5 mM MgCl2, 1 mM EDTA, 1 mM DTT, 50 ug/ml BSA, 10% glycerol, 25 C 20 min; footprinting: 20 mM Tris-HCl pH 8.0, 0.2 mM MgCl2, 2.1 mM KCl, 0.04 mM DTT, 11.1% glycerol, 25 C, 0.15-0.6 uM Crp1. Conditions: protein: recombinant; tags: C-terminal His6; chain copies: 2; label: none (SYBR Green stain); blunt.

B1: M3 (CBS1+CBS2 mutant) 99-bp (dsDNA)
DNA 1: GCAGCGGGGTCAGGAAGCTCGGCGCCGCCTTCCCGACCGGCTTTTCATCGGCGCCTCCCCCCAGCTAACCTTTCGCGCTACCTGCGTCGATCTCCTGGC
DNA 2: GCCAGGAGATCGACGCAGGTAGCGCGAAAGGTTAGCTGGGGGGAGGCGCCGATGAAAAGCCGGTCGGGAAGGCGGCGCCGAGCTTCCTGACCCCGCTGC
For B1, the binding result is recorded as “no binding”.
